B1: VPS39 (parent)
chain: TTLLKCYLHTNVALVAPLLRLENN
B2: RAD54B (parent)
chain: YVQEKRDGLKRRQQLEEELLRAKI

Variants of: B1
Experiment: protein stability index of a GFP-peptide fusion (GPS, HEK-293T) (PSI 1-6); higher = more stable
Details: c terminus: a fixed tail appended
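Also: lentivirally expressed fusions sorted by FACS into six bins by GFP to DsRed ratio, PSI derived from sequencing read proportions per bin multiplied by bin number.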

Protein stability index: each site, then its substitutions
N24: C 3.2 | Q 3.12
H9: F 2.82
E22: D 2.71
L4: P 1.74

Variants of: B2
Experiment: as above
Details: c terminus: a fixed tail appended

Protein stability index of substitutions, site by site:
E4: F 1.89 | V 1.6 | H 1.6 | N 1.89 | T 1.49 | C 2.57 | Q 1.68 | P 2.23 | D 1.68 | G 2.13 | Y 2.28 | R 2.31 | I 1.35 | S 2.9 | K 2.28 | M 1.84 | W 1.62 | A 1.83 | L 1.67
Q13: Y 1.9 | T 2.32 | D 2.3 | S 1.69 | K 1.46 | F 1.62 | E 2.41 | W 1.98 | A 2.23 | L 2.32 | G 2.31 | I 2.49 | V 2.4 | R 1.71 | H 2.06 | P 2.17 | N 1.91 | M 2.07 | C 1.84
R11: H 2.93 | P 2.25 | K 2.44 | E 3.22 | Q 2.32 | N 2.67 | G 2 | I 2.86 | L 2.23 | C 1.81 | D 2.62 | W 2.46 | F 1.69 | M 2.07 | T 2.46 | A 2.82 | Y 1.97 | V 2.13 | S 2.36
R12: D 3.23 | A 1.85 | F 2.28 | N 2.41 | S 2.06 | Q 2.35 | Y 2.01 | T 2.19 | K 2.47 | I 1.99 | W 1.89 | C 2.25 | M 2.02 | E 2.34 | G 2.25 | P 1.96 | V 2.04 | H 2.18 | L 1.98
K5: A 1.96 | S 2.56 | F 2.49 | W 2.11 | Y 2.4 | D 3.46 | I 2.77 | T 1.74 | L 1.96 | M 2.25 | H 2.26 | E 3.57 | R 1.86 | C 2.16 | P 2.05 | Q 2.48 | G 1.91 | N 2.19 | V 2.1
L9: C 2.06 | M 2.02 | Y 1.91 | Q 2.26 | W 1.81 | R 1.79 | E 2.85 | V 1.82 | F 2.02 | N 2.35 | T 1.83 | K 1.98 | I 2.25 | P 2.36 | H 2.1 | S 1.99 | D 2.92 | G 2.14 | A 2.21
E16: T 1.83 | I 1.51 | L 2.17 | M 1.74 | W 1.73 | F 2.74 | R 1.53 | S 1.39 | H 1.74 | Y 1.73 | K 1.67 | G 2.41 | C 2.09 | Q 1.8 | A 1.98 | P 1.56 | N 2.07 | D 1.77 | V 2.24
V2: A 3.72 | M 3.65 | I 2.84 | W 3.35 | C 3.08 | P 3.2 | G 4.12 | K 3.82 | D 4.46 | S 4.01 | T 3.75 | L 3.41 | Q 3.31 | R 3.82 | Y 3.56 | N 3.73 | H 2.55 | E 4.64 | F 3.62
Y1: Q 3.42 | F 1.79 | S 4.37 | R 3.77 | C 3.52 | L 3.56 | W 3.92 | H 3.91 | P 3.89 | N 3.74 | A 3.7 | D 4.4 | V 2.81 | E 3.68 | T 3.59 | K 3.74 | I 3.14 | G 4.19 | M 3.95
K10: R 1.98 | A 2.04 | S 2.49 | G 2.28 | P 2.55 | V 2.9 | Y 1.77 | E 2.58 | Q 2.5 | W 1.47 | M 2.46 | F 1.6 | N 2.41 | L 2.28 | T 2.5 | C 1.83 | D 2.04 | H 2.4 | I 1.97
R6: M 2.12 | N 2.31 | G 2.39 | W 2.07 | H 2.1 | Y 2.18 | F 2.14 | A 2.26 | D 2.87 | L 2.46 | V 2.23 | C 2.32 | Q 2.39 | K 1.96 | E 3.26 | T 2.49 | I 2.66 | P 1.94 | S 1.75
L15: G 1.75 | F 1.4 | D 2.09 | R 1.99 | H 2.38 | C 1.87 | A 1.93 | W 1.49 | S 1.95 | V 1.48 | M 2.56 | E 2.61 | Y 2.44 | I 2.32 | T 1.55 | K 2.05 | P 1.51 | N 2.05 | Q 1.7
G8: M 2.29 | H 1.92 | I 1.99 | E 2.59 | D 2.27 | A 1.82 | C 1.98 | Q 2.01 | S 1.99 | N 1.49 | F 2.27 | L 2.45 | Y 2.12 | P 2.12 | W 3.6 | T 1.74 | K 2.33 | V 2.11 | R 2.28
Q3: C 2.01 | V 2.48 | H 1.91 | E 2.35 | Y 1.8 | N 2.05 | R 1.83 | P 2.43 | A 1.98 | L 1.75 | S 1.75 | K 1.81 | I 1.77 | F 1.95 | G 1.9 | D 2.97 | W 2.43 | M 1.64 | T 2.94
E18: D 1.86 | G 2.53 | C 1.73 | H 2.29 | F 2.06 | A 2.02
D7: K 2.16 | F 1.54 | C 3.13 | Q 2.21 | W 2.14 | Y 1.39 | G 1.88 | M 1.79 | L 1.46 | A 1.87 | N 1.81 | I 2.13 | P 1.88 | V 1.47 | E 1.96 | T 3.69 | S 2.37 | H 1.67 | R 2.37
E17: N 2 | Y 1.36 | A 1.6 | P 1.98 | T 2.08 | F 1.87 | K 1.9 | V 2.25 | D 2.01 | L 2.19 | M 2.21 | I 2.45 | Q 1.51 | G 2.35 | S 2.15 | C 2.21 | H 1.84 | R 2.44 | W 1.9
Q14: S 1.67 | K 2.35 | L 1.86 | D 2.2 | Y 2.25 | F 2.12 | H 1.94 | V 2.01 | R 2.09 | G 2.33 | A 1.93 | P 1.99 | W 2.12 | E 2 | N 1.65 | M 1.75 | C 1.77 | I 1.76 | T 1.75
